Measurements as given in US20160024194A1.

What was measured:
[1] = target: human fibronectin (purified; plasma fibronectin used in the ELISA assays; purified Fibronectin protein from BIOPUR AG in Biacore) (human) (UniProt P02751); test: SPR, Biacore 3000, antibody captured on anti-mouse antibody on CM-5 chip, fibronectin in solution, 1:1 Langmuir fit, two experiments; lower end of the range from the two independent experiments; the text does not say which experiment
[2] = target: human fibronectin (purified; plasma fibronectin used in the ELISA assays; purified Fibronectin protein from BIOPUR AG in Biacore) (human) (UniProt P02751); test: Biacore 3000, 7A8 captured on anti-mouse antibody, fibronectin injected at 15 nM-500 nM, 1:1 Langmuir fit
[3] = target: human fibronectin (purified; plasma fibronectin used in the ELISA assays; purified Fibronectin protein from BIOPUR AG in Biacore) (human) (UniProt P02751); test: SPR, Biacore 3000, antibody captured on anti-mouse antibody on CM-5 chip, fibronectin in solution, 1:1 Langmuir fit, two experiments; upper end of the range from the two independent experiments; the text does not say which experiment
[4] = target: human fibronectin (purified; plasma fibronectin used in the ELISA assays; purified Fibronectin protein from BIOPUR AG in Biacore) (human) (UniProt P02751); test: Biacore 3000, 7A8 captured on anti-mouse antibody, fibronectin injected at 20 nM-100 nM, 1:1 Langmuir fit

Kd [1]: 2.8 nM | Kd [2]: 2.8 nM | Kd [3]: 7.26 nM | Kd [4]: 7.26 nM
B1: 7A8 monoclonal antibody produced by hybridoma PTA-120971 (antibody, V domains shown)
VH: QVQLRESEPGLVAPSRSLSITCTVSGFSLTSYAVSWVRQPPGKGLEWLGVIWTGGGTNYNSALKSRLSISKDNSKNQVFLKMNSLQTDDTARYYCARYSNLYYAMDYWGQGTSVTVSS
VL: DIVMTQSQKFMSTSVGERVSITCKASQNVGTNVAWYQQKAGQSLELLIYGASNRHTGVPDRFTGSGSGTDFTLTITNVQSEDMTNYFCEQYRSYPLTFGGGSKLEIK
